We go through two molecules from patent publication US20240076386A1 (Pfizer, published 2024).

The target in assay [1] is T1, cynomolgus monkey E-selectin extracellular domain with 10 His purification tail (cynomolgus monkey, UniProt P16581 22-554 (human entry)).
T1 construct: also called cynomolgus E-selectin; truncated cynomolgus monkey E-selectin
T1 chain: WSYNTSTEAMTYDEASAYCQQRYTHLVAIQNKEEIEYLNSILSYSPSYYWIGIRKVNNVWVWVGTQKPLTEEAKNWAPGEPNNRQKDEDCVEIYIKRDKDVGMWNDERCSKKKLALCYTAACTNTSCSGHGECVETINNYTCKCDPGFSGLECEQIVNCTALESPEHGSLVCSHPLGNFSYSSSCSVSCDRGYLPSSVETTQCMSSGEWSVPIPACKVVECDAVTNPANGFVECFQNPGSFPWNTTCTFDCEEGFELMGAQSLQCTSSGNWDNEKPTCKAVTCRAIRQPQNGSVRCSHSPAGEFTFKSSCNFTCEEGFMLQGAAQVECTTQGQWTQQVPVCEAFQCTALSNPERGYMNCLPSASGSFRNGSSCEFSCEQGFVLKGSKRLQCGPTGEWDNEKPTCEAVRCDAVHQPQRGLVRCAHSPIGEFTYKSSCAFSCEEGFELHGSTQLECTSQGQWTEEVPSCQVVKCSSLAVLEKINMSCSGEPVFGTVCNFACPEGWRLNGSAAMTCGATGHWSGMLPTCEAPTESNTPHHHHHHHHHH
Put plainly: SPR, antibody captured, E-selectin analyte. As to the method: (§1) Final immobilization level of the capture antibody was approximately 10,000 resonance units (RU). The running buffer for immobilization and kinetics was HBS-EP+(10 mM 4-(2-hydroxyethyl)-1-piperazineethanesulfonic acid (HEPES) pH 7.4, 150 mM sodium chloride, 3 mM ethylenediaminetetraacetic acid (EDTA), 0.05% (v/v) Tween-20).
(§2) To characterize binding of antibodies to human, cynomolgus monkey, and mouse E-selectin, an antibody was diluted to 0.5 μg/mL in HBS-EP+ and captured by the anti-human IgG immobilized on flow cells 2, 3 and 4 for 30 seconds to 1 minute at a flow rate of 10 μL/minute to achieve a capture level of 70 to 300 RU. Flow cell 1 was used as a reference surface. […] HBS-EP+ buffer cycles collected for each captured antibody were used for double-referencing (Myszka D G. J. Mol. Recognition 1999; 12(5):279-84). At the end of each cycle, the entire anti-IgG surface was regenerated by a 30 second pulse of 3 M MgCl₂ and a 30 second pulse of ionic buffer (1.83 M MgCl₂, 0.92 M Urea, 1.83 M Guanidine HCl, pH 7.4) (Andersson K. Analy. Chem. 1999; 71(13): 2475-81). Kinetic assays were conducted at 25° C. at a collection rate of 10 Hertz (Hz) on a BIAcore™ T200 instrument (GE Healthcare). Rate constants and affinities were determined by fitting the data to a 1:1 binding model in BIAcore™ T200 Evaluation software version 3.0 (GE Healthcare).
(§3) This was done by first binding the antibody to immobilized anti-human IgG. After antibody capture, dilutions of the E-selectin proteins were flowed over and the association rate constant (ka), disassociation rate constant (kd), t½, and KD values were determined for binding to human and cynomolgus E-selectin (Table 13).

Assay [2] deals with T2, human E-selectin extracellular domain with 10 His purification tail (human, UniProt P16581 22-556).
T2 construct: also called soluable human E-selectin extracellular domain; rhE-Selectin
T2 sequence: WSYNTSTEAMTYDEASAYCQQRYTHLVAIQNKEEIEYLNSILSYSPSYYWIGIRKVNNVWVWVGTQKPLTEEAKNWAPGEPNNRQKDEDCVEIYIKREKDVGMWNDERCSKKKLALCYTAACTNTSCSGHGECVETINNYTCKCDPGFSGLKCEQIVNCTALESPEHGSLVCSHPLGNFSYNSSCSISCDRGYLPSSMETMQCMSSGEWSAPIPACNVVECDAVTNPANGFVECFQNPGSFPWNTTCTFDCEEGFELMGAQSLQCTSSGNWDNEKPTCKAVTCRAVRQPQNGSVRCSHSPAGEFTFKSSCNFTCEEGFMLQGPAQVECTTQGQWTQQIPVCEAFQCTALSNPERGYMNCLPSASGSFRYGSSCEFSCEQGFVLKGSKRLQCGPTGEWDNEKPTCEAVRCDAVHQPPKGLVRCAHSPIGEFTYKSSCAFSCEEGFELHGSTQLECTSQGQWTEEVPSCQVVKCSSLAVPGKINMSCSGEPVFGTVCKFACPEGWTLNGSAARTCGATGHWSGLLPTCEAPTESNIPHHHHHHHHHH
Put plainly: SPR, antibody captured, E-selectin analyte. As to the method: as §1, §2, §3

The target in assay [3] is T3, rabbit E-selectin (rabbit, UniProt P27113 24-495, limits assumed).
T3 sequence (looked up): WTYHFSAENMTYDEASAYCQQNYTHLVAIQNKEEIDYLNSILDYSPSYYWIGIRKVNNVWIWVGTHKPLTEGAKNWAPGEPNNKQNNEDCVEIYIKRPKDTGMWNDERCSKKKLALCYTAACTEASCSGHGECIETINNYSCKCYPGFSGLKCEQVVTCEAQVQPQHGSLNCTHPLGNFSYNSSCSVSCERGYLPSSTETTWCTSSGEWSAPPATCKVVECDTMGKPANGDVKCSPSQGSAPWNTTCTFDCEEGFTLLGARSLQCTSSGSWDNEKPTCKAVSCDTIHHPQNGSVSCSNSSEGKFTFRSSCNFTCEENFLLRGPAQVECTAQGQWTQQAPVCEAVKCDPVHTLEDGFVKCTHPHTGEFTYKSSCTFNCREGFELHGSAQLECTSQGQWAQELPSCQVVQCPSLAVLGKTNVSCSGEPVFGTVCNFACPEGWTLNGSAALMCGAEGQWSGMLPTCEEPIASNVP
The assay can be described thus: SPR (BIAcore), single sensorgram per selectin.

B1: humanized anti-E-selectin antibody 0841 (antibody, human IgG1, kappa, V domains shown)
VH: EVQLVESGGGLVQPGGSLRLSCAASGYNIRSSYMHWVRQAPGKGLEWVARIDPANGNTIYAEKFKIRFTISADNAKNSAYLQMNSLRAEDTAVYYCAMDLYSTSEYWGQGTLVTVSS
VL: DIQMTQSPSSLSASVGDRVTITCKTSQNINRYLNWYQQKPGKAPKLLIYNANSLQTGVPSRFSGSGSGTDFTLTISSLQPEDFATYFCLQDNSWPLTFGQGTKVEIKR
notes: effector-null human IgG1, kappa
In assay [1], B1 had a Kd of 138 nM, an off-rate (koff) of 0.0252 s⁻¹, a kon of 182000 M⁻¹ s⁻¹ and a t½ of 27.6 s. In assay [2], this molecule registered an equilibrium dissociation constant (Kd) of 92.8 nM, a koff of 0.0237 s⁻¹, an on-rate (kon) of 255000 M⁻¹ s⁻¹ and a t½ of 29.3 s.

B2: optimized anti-E-selectin antibody 1444 (antibody, human IgG1, kappa, V domains shown)
VH: EVQLVESGGGLVQPGGSLRLSCAASGYAIRSAYMHWVRQAPGKGLEWVARIDPANGNTIYVDSVTGRFTISADNAKNSAYLQMNSLRAEDTAVYYCAMDLYSTSEYWGQGTLVTVSS
VL: DIQMTQSPSSLSASVGDRVTITCKTSQNIERYLNWYQQKPGKAPKLLIYAASSLQSGVPSRFSGSGSGTDFTLTISSLQPEDFATYFCLQDNAWPLTFGQGTKVEIKR
notes: as for B1
Consider B2, for which, in assay [3], the binding result is reported as “no binding”.
